Measured values: patent US20170253660A1

What was measured:
[1] = target: human CD32 Fc receptor on NK92-MI cells (human); assay: cell-based or functional assay; details: for LAN1-CD32 Potency: scale: relative to m3F8
[2] = target: human CD16 Fc receptor on NK92-MI cells (human) (UniProt P08637); assay: cell-based or functional assay; details: for LAN1-CD16 Potency: scale: relative to m3F8
human CD16 Fc receptor on NK92-MI cells (human), sequence (P08637 17-254): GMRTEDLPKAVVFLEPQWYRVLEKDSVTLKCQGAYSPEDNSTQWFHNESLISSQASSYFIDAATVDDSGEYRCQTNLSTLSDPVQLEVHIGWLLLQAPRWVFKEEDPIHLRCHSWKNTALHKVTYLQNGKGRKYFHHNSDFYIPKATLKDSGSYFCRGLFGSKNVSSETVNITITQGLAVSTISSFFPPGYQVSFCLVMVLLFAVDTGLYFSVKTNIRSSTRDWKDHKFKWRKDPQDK

Row | Substance | M14-CD32 Potency (relative to m3F8) [1] | LAN1-CD32 Potency [1] | Antibody potency using NK92-CD16 ADCC, BE(1)N (relative potency (m3F8 = 1)) [2] | Antibody potency using NK92-CD16 ADCC, LAN1 (relative potency (m3F8 = 1)) [2] | Antibody potency using NK92-CD16 ADCC, NMB7 (relative potency (m3F8 = 1)) [2] | Antibody potency using NK92-CD16 ADCC, SHEP1 (relative potency (m3F8 = 1)) [2] | Antibody potency using NK92-CD16 ADCC, SKNLP (relative potency (m3F8 = 1)) [2] | M14-CD16 Potency (relative to m3F8) [2] | LAN1-CD16 Potency [2]
1 | 14.G2a (antibody) | 6 | 2 | 1 | 0.4 | 1 | 1 | 1 | 1 | 4
2 | ch14.18 (antibody) | 21 | 8 |  | 4 |  | 3 | 8 | 9 | 
3 | heat modified m3F8 (antibody) |  |  |  | 0.2 |  |  |  |  | 
4 | murine 3F8 (antibody) | 1 | 1 | 1 | 1 | 1 | 1 | 1 | 1 | 1
